Assay results: the Immune Epitope Database (IEDB)

Experiments:
HLA-A*02:06 = experiment: IEDB peptide-MHC binding, purified MHC/competitive/fluorescence; filed as Kd, often an IC50 or EC50 that approximates it; ≥ and ≤ were set here for values at or beyond the usual limits of such assays; conditions: source organism: Human immunodeficiency virus 1
HLA-A*69:01 = experiment: as above
HLA-A*68:02 [1] = experiment: as above
HLA-A*02:03 [2] = experiment: as above
HLA-A*03:01 [3] = experiment: IEDB peptide-MHC binding, purified MHC/competitive/fluorescence; ≥ and ≤ were set here for values at or beyond the usual limits of such assays; conditions: source organism: Vaccinia virus
HLA-B*07:02 = experiment: as above
HLA-A*02:01 [4] = experiment: as above
HLA-A*11:01 = experiment: as above; conditions: source organism: Vaccinia virus
HLA-A*01:01 [5] = experiment: as above
HLA-B*15:01 [6] = experiment: as above
HLA-A*01:01 [7] = experiment: IEDB peptide-MHC binding, purified MHC/competitive/fluorescence; filed as Kd, often an IC50 or EC50 that approximates it; ≥ and ≤ were set here for values at or beyond the usual limits of such assays
HLA-B*08:01 = experiment: IEDB peptide-MHC binding, purified MHC/competitive/fluorescence; ≥ and ≤ were set here for values at or beyond the usual limits of such assays
HLA-A*24:02 = experiment: as above
HLA-A*02:01 [8] = experiment: IEDB peptide-MHC binding, purified MHC/competitive/fluorescence; filed as Kd, often an IC50 or EC50 that approximates it; ≥ and ≤ were set here for values at or beyond the usual limits of such assays
HLA-A*30:01 = experiment: as above; conditions: source organism: Human immunodeficiency virus 1
HLA-A*31:01 = experiment: as above; conditions: source organism: Human immunodeficiency virus 1
HLA-B*39:01 = experiment: as above
HLA-B*15:17 = experiment: as above
HLA-B*57:01 = experiment: as above
HLA-B*15:01 [9] = experiment: as above
HLA-B*18:01 = experiment: as above
HLA-A*02:16 [10] = experiment: as above; conditions: source organism: Burkholderia pseudomallei K96243
HLA-A*29:02 [11] = experiment: as above
HLA-A*02:11 = experiment: IEDB peptide-MHC binding, purified MHC/direct/fluorescence; filed as Kd, often an IC50 or EC50 that approximates it; ≥ and ≤ were set here for values at or beyond the usual limits of such assays
HLA-A*03:01 [12] = experiment: as above
HLA-A*02:16 [13] = experiment: as above; conditions: source organism: Orthohantavirus andesense
HLA-A*02:12 [14] = experiment: as above
HLA-A*02:19 [15] = experiment: as above
HLA-A*02:03 [16] = experiment: as above; conditions: source organism: Orthohantavirus andesense
HLA-A*68:02 [17] = experiment: as above
HLA-B*46:01 = experiment: IEDB peptide-MHC binding, purified MHC/competitive/fluorescence; filed as Kd, often an IC50 or EC50 that approximates it; ≥ and ≤ were set here for values at or beyond the usual limits of such assays
HLA-B*51:01 = experiment: as above
HLA-A*24:03 = experiment: as above
HLA-A*26:01 = experiment: as above
HLA-B*27:03 = experiment: as above
HLA-A*29:02 [18] = experiment: IEDB peptide-MHC binding, purified MHC/direct/fluorescence; filed as Kd, often an IC50 or EC50 that approximates it; ≥ and ≤ were set here for values at or beyond the usual limits of such assays; conditions: source organism: Zaire ebolavirus
HLA-A*01:01 [19] = experiment: as above; conditions: source organism: Ebola virus - Eckron (Zaire, 1976)
HLA-A*03:01 [20] = experiment: IEDB peptide-MHC binding, purified MHC/competitive/fluorescence; filed as Kd, often an IC50 or EC50 that approximates it; ≥ and ≤ were set here for values at or beyond the usual limits of such assays
HLA-A*02:12 [21] = experiment: as above
HLA-A*02:19 [22] = experiment: as above
[23] = source organism: Human immunodeficiency virus 1
[24] = source organism: Vaccinia virus
[25] = source organism: Zaire ebolavirus
[26] = source organism: Vaccinia virus Copenhagen
[27] = source organism: Measles morbillivirus
[28] = source organism: Orthohantavirus andesense
[29] = source organism: Cryptosporidium parvum Iowa II
[30] = source organism: Entamoeba dispar SAW760

EELRSLFNTV
Kd (HLA-A*02:06): 0.302 µM | Kd (HLA-A*69:01; [23]): 0.301 µM | Kd (HLA-A*68:02 [1]; [23]): 0.325 µM

EELRSLFNTI
Kd (HLA-A*02:06): 1.14 µM | Kd (HLA-A*02:03 [2]; [23]): ≥ 20 µM | Kd (HLA-A*68:02 [1]; [23]): ≥ 20 µM

WAMEKSSKY
IC50 (HLA-A*03:01 [3]): ≥ 265 µM | IC50 (HLA-B*07:02; [24]): ≥ 624 µM | IC50 (HLA-A*02:01 [4]; [24]): ≥ 122 µM | IC50 (HLA-A*11:01): ≥ 130 µM | IC50 (HLA-A*01:01 [5]; [24]): 36.8 µM | IC50 (HLA-B*15:01 [6]; [24]): 9.18 µM

HSDTAKAFA
Kd (HLA-A*01:01 [7]; source organism: Escherichia coli): ≥ 20 µM

VRQRVIPVY
IC50 (HLA-B*08:01; [25]): ≥ 210 µM | IC50 (HLA-A*24:02; [25]): 23.4 µM | IC50 (HLA-A*02:01 [4]; [25]): ≥ 524 µM | IC50 (HLA-B*15:01 [6]; [25]): 3.26 µM

EKLKSLFNTI
Kd (HLA-A*02:06): 0.00183 µM | Kd (HLA-A*02:01 [8]; [23]): ≥ 20 µM | Kd (HLA-A*30:01): 0.0207 µM | Kd (HLA-A*02:03 [2]; [23]): 0.0368 µM | Kd (HLA-A*31:01): ≥ 20 µM | Kd (HLA-A*68:02 [1]; [23]): ≥ 20 µM | Kd (HLA-B*39:01; [23]): 0.641 µM

INPIVKTSL
IC50 (HLA-B*08:01; [24]): ≥ 88.4 µM | IC50 (HLA-B*07:02; [24]): 21.1 µM

TFALKKLII
IC50 (HLA-B*08:01; [26]): ≥ 132 µM | IC50 (HLA-A*24:02; [26]): 0.323 µM | IC50 (HLA-A*02:01 [4]; [26]): ≥ 131 µM

KSLYNTVATLY
Kd (HLA-B*15:17; [23]): 0.0064 µM | Kd (HLA-A*30:01): ≥ 20 µM | Kd (HLA-B*57:01; [23]): 0.959 µM | Kd (HLA-A*01:01 [7]; [23]): ≥ 20 µM | Kd (HLA-A*02:03 [2]; [23]): ≥ 20 µM | Kd (HLA-B*15:01 [9]; [23]): ≥ 20 µM | Kd (HLA-B*18:01; [23]): ≥ 20 µM

ELAKPWPGA
Kd (HLA-A*02:16 [10]): ≥ 20 µM | Kd (HLA-A*02:01 [8]; source organism: Burkholderia pseudomallei K96243): 1.21 µM

FSILNRKAI
IC50 (HLA-B*08:01; [25]): 21.6 µM | IC50 (HLA-A*24:02; [25]): 5.56 µM | IC50 (HLA-B*07:02; [25]): 46.5 µM | IC50 (HLA-A*02:01 [4]; [25]): ≥ 235 µM | IC50 (HLA-B*15:01 [6]; [25]): 35.8 µM

SFSYFYPFR
Kd (HLA-A*29:02 [11]; [27]): 0.458 µM | Kd (HLA-A*01:01 [7]; [27]): ≥ 20 µM

VWKQLFPEL
Kd (HLA-A*02:11; [28]): ≥ 20 µM | Kd (HLA-A*03:01 [12]; [28]): ≥ 20 µM | Kd (HLA-A*02:16 [13]): ≥ 20 µM | Kd (HLA-A*02:12 [14]; [28]): ≥ 20 µM | Kd (HLA-A*02:19 [15]; [28]): ≥ 20 µM | Kd (HLA-A*02:03 [16]): ≥ 20 µM | Kd (HLA-A*68:02 [17]; [28]): ≥ 20 µM | Kd (HLA-B*15:17; [28]): ≥ 20 µM | Kd (HLA-B*46:01; [28]): ≥ 20 µM | Kd (HLA-B*51:01; [28]): ≥ 20 µM | Kd (HLA-A*24:03; [28]): 0.0105 µM | Kd (HLA-A*02:01 [8]; [28]): ≥ 20 µM | Kd (HLA-A*69:01; [28]): ≥ 20 µM | Kd (HLA-A*26:01; [28]): ≥ 20 µM | Kd (HLA-B*57:01; [28]): ≥ 20 µM | Kd (HLA-B*18:01; [28]): ≥ 20 µM | Kd (HLA-B*27:03; [28]): ≥ 20 µM | Kd (HLA-B*39:01; [28]): ≥ 20 µM

NSTHNTPVY
Kd (HLA-A*02:11; [25]): ≥ 20 µM | Kd (HLA-A*03:01 [12]; [25]): ≥ 20 µM | Kd (HLA-A*29:02 [18]): ≥ 20 µM | Kd (HLA-A*02:12 [14]; [25]): ≥ 20 µM | Kd (HLA-A*01:01 [19]): ≥ 20 µM | Kd (HLA-A*02:19 [15]; [25]): ≥ 20 µM | Kd (HLA-A*68:02 [17]; [25]): ≥ 20 µM | Kd (HLA-B*15:17; [25]): ≥ 20 µM | Kd (HLA-B*46:01; [25]): ≥ 20 µM | Kd (HLA-B*51:01; [25]): ≥ 20 µM | Kd (HLA-A*02:01 [8]; [25]): ≥ 20 µM | Kd (HLA-A*69:01; [25]): ≥ 20 µM | Kd (HLA-A*26:01; [25]): ≥ 20 µM | Kd (HLA-B*57:01; [25]): ≥ 20 µM | Kd (HLA-B*18:01; [25]): ≥ 20 µM | Kd (HLA-B*27:03; [25]): ≥ 20 µM | Kd (HLA-B*39:01; [25]): ≥ 20 µM | IC50 (HLA-A*01:01 [5]; [25]): 29.1 µM | IC50 (HLA-B*15:01 [6]; [25]): ≥ 119 µM

DFHERPVIL
IC50 (HLA-B*08:01; source organism: Variola virus): ≥ 88.5 µM | IC50 (HLA-A*24:02; source organism: Variola virus): 0.0313 µM

KIFKVTGEF
Kd (HLA-B*51:01; [29]): ≥ 20 µM | Kd (HLA-A*03:01 [20]; [29]): ≥ 20 µM | Kd (HLA-A*29:02 [11]; [29]): 0.735 µM | Kd (HLA-A*02:01 [8]; [29]): ≥ 20 µM | Kd (HLA-A*69:01; [29]): ≥ 20 µM | Kd (HLA-A*26:01; [29]): ≥ 20 µM | Kd (HLA-A*02:12 [21]; [29]): ≥ 20 µM | Kd (HLA-A*02:19 [22]; [29]): ≥ 20 µM | Kd (HLA-A*02:03 [2]; [29]): ≥ 20 µM | Kd (HLA-A*68:02 [1]; [29]): ≥ 20 µM | Kd (HLA-B*18:01; [29]): ≥ 20 µM | Kd (HLA-B*27:03; [29]): ≥ 20 µM | Kd (HLA-B*39:01; [29]): ≥ 20 µM

LVGNTLTTC
Kd (HLA-B*46:01; [30]): ≥ 20 µM | Kd (HLA-B*51:01; [30]): ≥ 20 µM | Kd (HLA-A*24:03; [30]): ≥ 20 µM | Kd (HLA-A*03:01 [20]; [30]): ≥ 20 µM | Kd (HLA-A*29:02 [11]; [30]): ≥ 20 µM | Kd (HLA-A*02:01 [8]; [30]): ≥ 20 µM | Kd (HLA-A*26:01; [30]): ≥ 20 µM | Kd (HLA-A*02:12 [21]; [30]): 4.55 µM | Kd (HLA-B*57:01; [30]): ≥ 20 µM | Kd (HLA-A*02:19 [22]; [30]): ≥ 20 µM | Kd (HLA-A*02:03 [2]; [30]): ≥ 20 µM | Kd (HLA-B*15:01 [9]; [30]): ≥ 20 µM | Kd (HLA-B*18:01; [30]): ≥ 20 µM | Kd (HLA-B*27:03; [30]): ≥ 20 µM | Kd (HLA-B*39:01; [30]): ≥ 20 µM
